# Reference: US20250084142A1 (INTARCIA THERAPEUTICS, published 2025)
# Starred links: 1 amine or outer side, 2 acyl side, 3 side chain; linkers in the order of their positions; H or OH if unused. Non-standard residues stand in square brackets, D forms with d. Groups on a side chain read outwards from the residue. No end group written: not given here. *: point of attachment. dpeg = —[CO(CH2)O(CH2)2O(CH2)NH]— spacer, O=C(COCCOCN[*:1])[*:2]; C20 diacid = O=C(O)CCCCCCCCCCCCCCCCCCC(=O)*; γGlu = O=C(O)[C@H](CCC(=O)[*:2])N[*:1]; NMeY = CN[C@@H](Cc1ccc(O)cc1)C(=O)O
# T1: NPY5R
# T1 sequence (Q15761 1-445, species assumed, looked up): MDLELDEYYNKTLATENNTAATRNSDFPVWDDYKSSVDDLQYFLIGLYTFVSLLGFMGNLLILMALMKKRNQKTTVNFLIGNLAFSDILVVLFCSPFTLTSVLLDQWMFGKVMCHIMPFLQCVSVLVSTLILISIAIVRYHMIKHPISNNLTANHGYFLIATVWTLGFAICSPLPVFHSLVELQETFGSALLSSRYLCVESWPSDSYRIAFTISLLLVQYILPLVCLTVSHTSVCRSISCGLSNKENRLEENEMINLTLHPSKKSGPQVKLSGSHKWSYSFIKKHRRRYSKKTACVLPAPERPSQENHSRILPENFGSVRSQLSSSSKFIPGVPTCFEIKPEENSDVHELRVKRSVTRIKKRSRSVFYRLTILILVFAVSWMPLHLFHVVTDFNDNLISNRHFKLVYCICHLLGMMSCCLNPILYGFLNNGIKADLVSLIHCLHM
# T2: NPY2R
# T2 sequence (P49146 1-381, species assumed, looked up): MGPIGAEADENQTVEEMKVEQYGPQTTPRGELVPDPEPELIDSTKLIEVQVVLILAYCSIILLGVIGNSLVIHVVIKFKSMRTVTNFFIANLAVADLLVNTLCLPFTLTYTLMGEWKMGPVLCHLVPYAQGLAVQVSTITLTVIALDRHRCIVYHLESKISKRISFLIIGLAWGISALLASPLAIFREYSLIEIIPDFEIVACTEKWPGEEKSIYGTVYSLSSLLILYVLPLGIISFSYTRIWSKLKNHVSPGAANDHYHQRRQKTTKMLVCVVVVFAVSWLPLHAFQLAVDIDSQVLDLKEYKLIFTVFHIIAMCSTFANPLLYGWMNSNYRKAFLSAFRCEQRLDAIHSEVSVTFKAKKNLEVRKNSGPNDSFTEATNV
# B1: Compound A23 (peptide)
# peptide: PKPEAPGK([γGlu-γGlu-C20 diacid])DASPEEWQRYYKDLRHYLNWLTRQRF-NH2
# B2: Compound A21 (peptide)
# peptide: PKPEAPGK([γGlu-γGlu-C20 diacid])DASPEEWNRYY[dK]DLRHYLNWLTRQRF-NH2
# B3: Compound A25 (peptide)
# peptide: PKPEAPGK([γGlu-γGlu-C20 diacid])DASPEEWSRYYKDLRHYLNWLTRQRF-NH2
# B4: Compound A16 (peptide)
# peptide: PKPEAPGKDASPEEWNRYYK([γGlu-dpeg-dpeg-γGlu-C20 diacid])DLRHYLNWLTRQRF-NH2
# B5: Compound A24 (peptide)
# peptide: PKPEAPGK([γGlu-γGlu-C20 diacid])DASPEEWDRYYKDLRHYLNWLTRQRF-NH2
# B6: Compound A15 (peptide)
# peptide: PKPEAPG[dK]([γGlu-γGlu-C20 diacid])DASPEEWNRYYADLRHYLNWLTRQRF-NH2
# B7: Compound A8 (peptide)
# peptide: PKPEAPGKDASPK([γGlu-γGlu-C20 diacid])EWNRYYADARHYLNWLTRQR[NMeY]-NH2
# modifications: N-terminus assumed
# SMILES: CC(C)C[C@H](NC(=O)[C@H](Cc1ccc(O)cc1)NC(=O)[C@H](Cc1c[nH]cn1)NC(=O)[C@H](CCCNC(=N)N)NC(=O)[C@H](C)NC(=O)[C@H](CC(=O)O)NC(=O)[C@H](C)NC(=O)[C@H](Cc1ccc(O)cc1)NC(=O)[C@H](Cc1ccc(O)cc1)NC(=O)[C@H](CCCNC(=N)N)NC(=O)[C@H](CC(N)=O)NC(=O)[C@H](Cc1c[nH]c2ccccc12)NC(=O)[C@H](CCC(=O)O)NC(=O)[C@H](CCCCNC(=O)CC[C@H](NC(=O)CC[C@H](NC(=O)CCCCCCCCCCCCCCCCCCC(=O)O)C(=O)O)C(=O)O)NC(=O)[C@@H]1CCCN1C(=O)[C@H](CO)NC(=O)[C@H](C)NC(=O)[C@H](CC(=O)O)NC(=O)[C@H](CCCCN)NC(=O)CNC(=O)[C@@H]1CCCN1C(=O)[C@H](C)NC(=O)[C@H](CCC(=O)O)NC(=O)[C@@H]1CCCN1C(=O)[C@H](CCCCN)NC(=O)[C@@H]1CCCN1)C(=O)N[C@@H](CC(N)=O)C(=O)N[C@@H](Cc1c[nH]c2ccccc12)C(=O)N[C@@H](CC(C)C)C(=O)N[C@H](C(=O)N[C@@H](CCCNC(=N)N)C(=O)N[C@@H](CCC(N)=O)C(=O)N[C@@H](CCCNC(=N)N)C(=O)N(C)[C@@H](Cc1ccc(O)cc1)C(N)=O)[C@@H](C)O
# B8: Compound A9 (peptide)
# peptide: PKPEAPGKDASPEEWK([γGlu-γGlu-C20 diacid])RYYADARHYLNWLTRQR[NMeY]-NH2
# modifications: N-terminus assumed
# SMILES: CC(C)C[C@H](NC(=O)[C@H](Cc1ccc(O)cc1)NC(=O)[C@H](Cc1c[nH]cn1)NC(=O)[C@H](CCCNC(=N)N)NC(=O)[C@H](C)NC(=O)[C@H](CC(=O)O)NC(=O)[C@H](C)NC(=O)[C@H](Cc1ccc(O)cc1)NC(=O)[C@H](Cc1ccc(O)cc1)NC(=O)[C@H](CCCNC(=N)N)NC(=O)[C@H](CCCCNC(=O)CC[C@H](NC(=O)CC[C@H](NC(=O)CCCCCCCCCCCCCCCCCCC(=O)O)C(=O)O)C(=O)O)NC(=O)[C@H](Cc1c[nH]c2ccccc12)NC(=O)[C@H](CCC(=O)O)NC(=O)[C@H](CCC(=O)O)NC(=O)[C@@H]1CCCN1C(=O)[C@H](CO)NC(=O)[C@H](C)NC(=O)[C@H](CC(=O)O)NC(=O)[C@H](CCCCN)NC(=O)CNC(=O)[C@@H]1CCCN1C(=O)[C@H](C)NC(=O)[C@H](CCC(=O)O)NC(=O)[C@@H]1CCCN1C(=O)[C@H](CCCCN)NC(=O)[C@@H]1CCCN1)C(=O)N[C@@H](CC(N)=O)C(=O)N[C@@H](Cc1c[nH]c2ccccc12)C(=O)N[C@@H](CC(C)C)C(=O)N[C@H](C(=O)N[C@@H](CCCNC(=N)N)C(=O)N[C@@H](CCC(N)=O)C(=O)N[C@@H](CCCNC(=N)N)C(=O)N(C)[C@@H](Cc1ccc(O)cc1)C(N)=O)[C@@H](C)O
# B9: Compound A19 (peptide)
# peptide: PKPEKPGK([γGlu-γGlu-C20 diacid])DASPEEWNRYYKDLRHYLNWLTRQRF-NH2
# modifications: N-terminus assumed
# SMILES: CC(C)C[C@H](NC(=O)[C@H](CC(=O)O)NC(=O)[C@H](CCCCN)NC(=O)[C@H](Cc1ccc(O)cc1)NC(=O)[C@H](Cc1ccc(O)cc1)NC(=O)[C@H](CCCNC(=N)N)NC(=O)[C@H](CC(N)=O)NC(=O)[C@H](Cc1c[nH]c2ccccc12)NC(=O)[C@H](CCC(=O)O)NC(=O)[C@H](CCC(=O)O)NC(=O)[C@@H]1CCCN1C(=O)[C@H](CO)NC(=O)[C@H](C)NC(=O)[C@H](CC(=O)O)NC(=O)[C@H](CCCCNC(=O)CC[C@H](NC(=O)CC[C@H](NC(=O)CCCCCCCCCCCCCCCCCCC(=O)O)C(=O)O)C(=O)O)NC(=O)CNC(=O)[C@@H]1CCCN1C(=O)[C@H](CCCCN)NC(=O)[C@H](CCC(=O)O)NC(=O)[C@@H]1CCCN1C(=O)[C@H](CCCCN)NC(=O)[C@@H]1CCCN1)C(=O)N[C@@H](CCCNC(=N)N)C(=O)N[C@@H](Cc1c[nH]cn1)C(=O)N[C@@H](Cc1ccc(O)cc1)C(=O)N[C@@H](CC(C)C)C(=O)N[C@@H](CC(N)=O)C(=O)N[C@@H](Cc1c[nH]c2ccccc12)C(=O)N[C@@H](CC(C)C)C(=O)N[C@H](C(=O)N[C@@H](CCCNC(=N)N)C(=O)N[C@@H](CCC(N)=O)C(=O)N[C@@H](CCCNC(=N)N)C(=O)N[C@@H](Cc1ccccc1)C(N)=O)[C@@H](C)O
# B10: Compound A7 (peptide)
# peptide: PKPEAPK([γGlu-γGlu-C20 diacid])KDASPEEWNRYYADARHYLNWLTRQR[NMeY]-NH2
# modifications: N-terminus assumed
# SMILES: CC(C)C[C@H](NC(=O)[C@H](Cc1ccc(O)cc1)NC(=O)[C@H](Cc1c[nH]cn1)NC(=O)[C@H](CCCNC(=N)N)NC(=O)[C@H](C)NC(=O)[C@H](CC(=O)O)NC(=O)[C@H](C)NC(=O)[C@H](Cc1ccc(O)cc1)NC(=O)[C@H](Cc1ccc(O)cc1)NC(=O)[C@H](CCCNC(=N)N)NC(=O)[C@H](CC(N)=O)NC(=O)[C@H](Cc1c[nH]c2ccccc12)NC(=O)[C@H](CCC(=O)O)NC(=O)[C@H](CCC(=O)O)NC(=O)[C@@H]1CCCN1C(=O)[C@H](CO)NC(=O)[C@H](C)NC(=O)[C@H](CC(=O)O)NC(=O)[C@H](CCCCN)NC(=O)[C@H](CCCCNC(=O)CC[C@H](NC(=O)CC[C@H](NC(=O)CCCCCCCCCCCCCCCCCCC(=O)O)C(=O)O)C(=O)O)NC(=O)[C@@H]1CCCN1C(=O)[C@H](C)NC(=O)[C@H](CCC(=O)O)NC(=O)[C@@H]1CCCN1C(=O)[C@H](CCCCN)NC(=O)[C@@H]1CCCN1)C(=O)N[C@@H](CC(N)=O)C(=O)N[C@@H](Cc1c[nH]c2ccccc12)C(=O)N[C@@H](CC(C)C)C(=O)N[C@H](C(=O)N[C@@H](CCCNC(=N)N)C(=O)N[C@@H](CCC(N)=O)C(=O)N[C@@H](CCCNC(=N)N)C(=O)N(C)[C@@H](Cc1ccc(O)cc1)C(N)=O)[C@@H](C)O
# B11: Compound A26 (peptide)
# peptide: PKPEAPGK([γGlu-γGlu-C20 diacid])DASPEEWTRYYKDLRHYLNWLTRQRF-NH2
# B12: Compound A13 (peptide)
# peptide: PKPEAPGK([γGlu-γGlu-C20 diacid])DASPEEWNRYYADLRHYLNWLTRQRF-NH2
# B13: Compound A20 (peptide)
# peptide: PKPEAPGK([γGlu-γGlu-C20 diacid])DASPKEWNRYYKDLRHYLNWLTRQRF-NH2
# Molecular target: T1, NPY5R
# Test: cell-based or functional assay
row,NPY5R pEC50,Binder
1,"8.6 -Log(EC50, M)",B1
2,"8.3 -Log(EC50, M)",B2
3,"8.4 -Log(EC50, M)",B3
4,"9.1 -Log(EC50, M)",B4
5,"8.7 -Log(EC50, M)",B5
6,"8 -Log(EC50, M)",B6
7,"7.1 -Log(EC50, M)",B7
8,"6 -Log(EC50, M)",B8
9,"8.7 -Log(EC50, M)",B9
10,"6 -Log(EC50, M)",B10
11,"8.5 -Log(EC50, M)",B11
12,"8.7 -Log(EC50, M)",B12
13,"8.7 -Log(EC50, M)",B13

# Molecular target: T2, NPY2R
# Test: cell-based or functional assay
row,NPY2R pEC50,Binder
1,"10.4 -Log(EC50, M)",B1
2,"10.4 -Log(EC50, M)",B2
3,"10.9 -Log(EC50, M)",B3
4,"10.2 -Log(EC50, M)",B4
5,"10.5 -Log(EC50, M)",B5
6,"10.2 -Log(EC50, M)",B6
7,"9.6 -Log(EC50, M)",B7
8,"9.6 -Log(EC50, M)",B8
9,"10.5 -Log(EC50, M)",B9
10,"9.7 -Log(EC50, M)",B10
11,"10.7 -Log(EC50, M)",B11
12,"10.2 -Log(EC50, M)",B12
13,"10.5 -Log(EC50, M)",B13
